These results are taken from the Immune Epitope Database (IEDB).

In one assay the target is HLA-A*02:03. Kind of assay: IEDB peptide-MHC binding, purified MHC/direct/fluorescence; filed as Kd, often an IC50 or EC50 that approximates it; ≥ and ≤ were set here for values at or beyond the usual limits of such assays.
In assay [1] the target is HLA-A*02:12. Described as above.
In another assay the target is HLA-A*02:16. The description is as above.
The target of a further assay is HLA-A*02:19. Described as above.
Assay [2] deals with HLA-A*29:02. Described as above.
The next assay concerns the target HLA-A*68:02. Described as above.
Assay [3] deals with HLA-A*03:01. Kind of assay: IEDB peptide-MHC binding, purified MHC/competitive/fluorescence; filed as Kd, often an IC50 or EC50 that approximates it; ≥ and ≤ were set here for values at or beyond the usual limits of such assays.
The target in assay [4] is HLA-A*26:01. The assay is described as above.
The target of assay [5] is HLA-A*31:01. The assay is described as above. Conditions: source organism: Orthohantavirus sinnombreense.
In assay [6] the target is HLA-A*69:01. The description is as above.
The target of assay [7] is HLA-B*15:01. The assay is described as above.
The target of assay [8] is HLA-B*18:01. Described as above.
Another assay addresses HLA-B*39:01. The assay is described as above.
The target of assay [9] is HLA-B*46:01. The assay is described as above.
Another assay addresses HLA-B*51:01. Described as above.
A further assay has as its target HLA-A*02:11. Kind of assay: IEDB peptide-MHC binding, purified MHC/direct/fluorescence; filed as Kd, often an IC50 or EC50 that approximates it; ≥ and ≤ were set here for values at or beyond the usual limits of such assays.
The target in assay [10] is HLA-A*03:01. The assay is described as above.
The next assay concerns the target HLA-A*24:03. The description is as above. The conditions noted are these: source organism: Zaire ebolavirus.
A further assay deals with HLA-B*40:01. The description is as above.
The target in assay [11] is HLA-A*02:01. Kind of assay: IEDB peptide-MHC binding, purified MHC/competitive/fluorescence; filed as Kd, often an IC50 or EC50 that approximates it; ≥ and ≤ were set here for values at or beyond the usual limits of such assays.
The target of a further assay is HLA-B*15:17. The assay is described as above. Conditions: source organism: Zaire ebolavirus.
A further assay concerns the target HLA-B*27:03. The assay is described as above.
Assay [12] has as its target HLA-B*57:01. The description is as above.
Assay [13] addresses HLA-A*26:01. Kind of assay: IEDB peptide-MHC binding, purified MHC/direct/fluorescence; filed as Kd, often an IC50 or EC50 that approximates it; ≥ and ≤ were set here for values at or beyond the usual limits of such assays. Conditions: source organism: Orthohantavirus andesense.
The target in assay [14] is HLA-B*15:01. Described as above.
In another assay the target is HLA-A*01:01. The assay is described as above. The conditions noted are these: source organism: Yellow fever virus.
Assay [15] has as its target HLA-A*02:01. The description is as above. Conditions: source organism: Yellow fever virus.
For assay [16], the target named is HLA-A*31:01. The assay is described as above. The conditions noted are these: source organism: Yellow fever virus.
In assay [17] the target is HLA-A*69:01. The description is as above. The conditions noted are these: source organism: Yellow fever virus.
In assay [18] the target is HLA-B*18:01. Described as above. Conditions: source organism: Yellow fever virus.
The target of the next assay is HLA-B*27:05. The description is as above. The conditions noted are these: source organism: Yellow fever virus.
For the next assay, the target named is HLA-B*44:02. Described as above. The conditions noted are these: source organism: Yellow fever virus.
Assay [19] has as its target HLA-B*46:01. The description is as above. Conditions: source organism: Yellow fever virus.
A further assay deals with HLA-B*48:01. The assay is described as above. Conditions: source organism: Yellow fever virus.
In assay [20] the target is HLA-B*57:01. Described as above. The conditions noted are these: source organism: Yellow fever virus.
The target in a further assay is HLA-B*58:01. The description is as above. The conditions noted are these: source organism: Yellow fever virus.
Assay [21] has as its target HLA-A*02:12. Kind of assay: IEDB peptide-MHC binding, purified MHC/competitive/fluorescence; filed as Kd, often an IC50 or EC50 that approximates it; ≥ and ≤ were set here for values at or beyond the usual limits of such assays. Conditions: source organism: Listeria monocytogenes EGD-e.
Assay [22] concerns the target HLA-A*29:02. The assay is described as above.
[23] abbreviates: source organism: Limestone Canyon virus.
The mark [24] stands for this setting: source organism: Orthohantavirus sinnombreense.
Setting [25] is: source organism: Zaire ebolavirus.
[26] abbreviates: source organism: Pergamino virus.
Setting [27] is: source organism: Lechiguanas virus.
Where [28] appears, read: source organism: Yellow fever virus.
[29] abbreviates: source organism: Listeria monocytogenes EGD-e.

In the case of RTLGVFRYK, the Kd in the assay with HLA-A*02:03 (setting [23]), with HLA-A*02:12 [1] (setting [23]), in the assay with HLA-A*02:16 (setting [23]), with HLA-A*02:19 (setting [23]), in the assay with HLA-A*29:02 [2] (setting [23]) and with HLA-A*68:02 (setting [23]) was no less than 20 µM in each case. For the same sequence, the Kd is 0.109 µM with HLA-A*03:01 [3] (setting [24]); no less than 20 µM with HLA-A*26:01 [4] (setting [24]); 0.0062 µM with HLA-A*31:01 [5]; no less than 20 µM with HLA-A*69:01 [6] (setting [24]); no less than 20 µM with HLA-B*15:01 [7] (setting [24]); no less than 20 µM with HLA-B*18:01 [8] (setting [24]). For the same sequence, the Kd with HLA-B*39:01 (setting [24]), with HLA-B*46:01 [9] (setting [24]) and with HLA-B*51:01 (setting [24]) was no less than 20 µM throughout.
Take LESLTDREL: the equilibrium dissociation constant (Kd) with HLA-A*02:03 (setting [25]), in the assay with HLA-A*02:11 (setting [25]), with HLA-A*02:12 [1] (setting [25]), with HLA-A*02:16 (setting [25]), with HLA-A*02:19 (setting [25]) and with HLA-A*03:01 [10] (setting [25]) was no less than 20 µM in each case. Also, the equilibrium dissociation constant (Kd) in the assay with HLA-A*24:03 is no less than 20 µM; with HLA-A*68:02 (setting [25]), no less than 20 µM; with HLA-B*40:01 (source organism: Sudan ebolavirus - Uganda (2000)) it was 0.118 µM; with HLA-A*02:01 [11] (setting [25]), no less than 20 µM; in the assay with HLA-A*26:01 [4] (setting [25]), no less than 20 µM; in the assay with HLA-A*69:01 [6] (setting [25]), no less than 20 µM. Further, the Kd in the assay with HLA-B*15:01 [7] (setting [25]), with HLA-B*15:17, with HLA-B*18:01 [8] (setting [25]), in the assay with HLA-B*27:03 (setting [25]), with HLA-B*39:01 (setting [25]) and with HLA-B*46:01 [9] (setting [25]) was no less than 20 µM each time. Further, the Kd with HLA-B*51:01 (setting [25]) and with HLA-B*57:01 [12] (setting [25]) was no less than 20 µM each time.
Consider SCINGQCPY, for which the Kd in the assay with HLA-A*02:03 (setting [26]), with HLA-A*02:11 (setting [26]), with HLA-A*02:12 [1] (setting [26]), with HLA-A*02:16 (setting [26]), in the assay with HLA-A*02:19 (setting [26]) and in the assay with HLA-A*03:01 [10] (setting [26]) was no less than 20 µM each time. The Kd is 2.22 µM in the assay with HLA-A*26:01 [13]; no less than 20 µM with HLA-A*68:02 (setting [26]); 6 µM with HLA-B*15:01 [14] (source organism: Orthohantavirus andesense); no less than 20 µM with HLA-A*02:01 [11] (setting [27]); no less than 20 µM in the assay with HLA-A*69:01 [6] (setting [27]); no less than 20 µM with HLA-B*18:01 [8] (setting [27]). The Kd with HLA-B*27:03 (setting [27]), with HLA-B*39:01 (setting [27]), in the assay with HLA-B*46:01 [9] (setting [27]), in the assay with HLA-B*51:01 (setting [27]) and with HLA-B*57:01 [12] (setting [27]) was no less than 20 µM in each case.
As to PHAATIRVL, the Kd with HLA-A*01:01, with HLA-A*02:01 [15], with HLA-A*03:01 [10] (setting [28]), in the assay with HLA-A*29:02 [2] (setting [28]), in the assay with HLA-A*31:01 [16] and with HLA-A*69:01 [17] was no less than 20 µM throughout. Moreover, the Kd with HLA-B*15:01 [14] (setting [28]), with HLA-B*18:01 [18], in the assay with HLA-B*27:05, with HLA-B*40:01 (setting [28]), with HLA-B*44:02 and with HLA-B*46:01 [19] was no less than 20 µM throughout. The Kd with HLA-B*48:01, with HLA-B*57:01 [20] and with HLA-B*58:01 was no less than 20 µM each time.
Take LAIVTTPLV: the Kd with HLA-A*02:01 [11] (setting [29]) was 0.0272 µM; in the assay with HLA-A*02:12 [21], 0.144 µM; with HLA-A*03:01 [3] (setting [29]), no less than 20 µM; with HLA-A*26:01 [4] (setting [29]), no less than 20 µM; with HLA-A*29:02 [22] (setting [29]) it was no less than 20 µM; in the assay with HLA-B*15:01 [7] (setting [29]), no less than 20 µM. The Kd with HLA-B*18:01 [8] (setting [29]), with HLA-B*27:03 (setting [29]), in the assay with HLA-B*39:01 (setting [29]), in the assay with HLA-B*46:01 [9] (setting [29]) and with HLA-B*57:01 [12] (setting [29]) was no less than 20 µM throughout.
Take VVIPTAALQ: the Kd in the assay with HLA-A*29:02 [22] (source organism: Escherichia coli HS) is 0.744 µM.
